Literature values as cited in paper PMC12869367.

Molecular target: DMBT1S8L (Homo sapiens) (UniProt Q9UGM3)
UniProt Q9UGM3, sequence (Q9UGM3 20-2413): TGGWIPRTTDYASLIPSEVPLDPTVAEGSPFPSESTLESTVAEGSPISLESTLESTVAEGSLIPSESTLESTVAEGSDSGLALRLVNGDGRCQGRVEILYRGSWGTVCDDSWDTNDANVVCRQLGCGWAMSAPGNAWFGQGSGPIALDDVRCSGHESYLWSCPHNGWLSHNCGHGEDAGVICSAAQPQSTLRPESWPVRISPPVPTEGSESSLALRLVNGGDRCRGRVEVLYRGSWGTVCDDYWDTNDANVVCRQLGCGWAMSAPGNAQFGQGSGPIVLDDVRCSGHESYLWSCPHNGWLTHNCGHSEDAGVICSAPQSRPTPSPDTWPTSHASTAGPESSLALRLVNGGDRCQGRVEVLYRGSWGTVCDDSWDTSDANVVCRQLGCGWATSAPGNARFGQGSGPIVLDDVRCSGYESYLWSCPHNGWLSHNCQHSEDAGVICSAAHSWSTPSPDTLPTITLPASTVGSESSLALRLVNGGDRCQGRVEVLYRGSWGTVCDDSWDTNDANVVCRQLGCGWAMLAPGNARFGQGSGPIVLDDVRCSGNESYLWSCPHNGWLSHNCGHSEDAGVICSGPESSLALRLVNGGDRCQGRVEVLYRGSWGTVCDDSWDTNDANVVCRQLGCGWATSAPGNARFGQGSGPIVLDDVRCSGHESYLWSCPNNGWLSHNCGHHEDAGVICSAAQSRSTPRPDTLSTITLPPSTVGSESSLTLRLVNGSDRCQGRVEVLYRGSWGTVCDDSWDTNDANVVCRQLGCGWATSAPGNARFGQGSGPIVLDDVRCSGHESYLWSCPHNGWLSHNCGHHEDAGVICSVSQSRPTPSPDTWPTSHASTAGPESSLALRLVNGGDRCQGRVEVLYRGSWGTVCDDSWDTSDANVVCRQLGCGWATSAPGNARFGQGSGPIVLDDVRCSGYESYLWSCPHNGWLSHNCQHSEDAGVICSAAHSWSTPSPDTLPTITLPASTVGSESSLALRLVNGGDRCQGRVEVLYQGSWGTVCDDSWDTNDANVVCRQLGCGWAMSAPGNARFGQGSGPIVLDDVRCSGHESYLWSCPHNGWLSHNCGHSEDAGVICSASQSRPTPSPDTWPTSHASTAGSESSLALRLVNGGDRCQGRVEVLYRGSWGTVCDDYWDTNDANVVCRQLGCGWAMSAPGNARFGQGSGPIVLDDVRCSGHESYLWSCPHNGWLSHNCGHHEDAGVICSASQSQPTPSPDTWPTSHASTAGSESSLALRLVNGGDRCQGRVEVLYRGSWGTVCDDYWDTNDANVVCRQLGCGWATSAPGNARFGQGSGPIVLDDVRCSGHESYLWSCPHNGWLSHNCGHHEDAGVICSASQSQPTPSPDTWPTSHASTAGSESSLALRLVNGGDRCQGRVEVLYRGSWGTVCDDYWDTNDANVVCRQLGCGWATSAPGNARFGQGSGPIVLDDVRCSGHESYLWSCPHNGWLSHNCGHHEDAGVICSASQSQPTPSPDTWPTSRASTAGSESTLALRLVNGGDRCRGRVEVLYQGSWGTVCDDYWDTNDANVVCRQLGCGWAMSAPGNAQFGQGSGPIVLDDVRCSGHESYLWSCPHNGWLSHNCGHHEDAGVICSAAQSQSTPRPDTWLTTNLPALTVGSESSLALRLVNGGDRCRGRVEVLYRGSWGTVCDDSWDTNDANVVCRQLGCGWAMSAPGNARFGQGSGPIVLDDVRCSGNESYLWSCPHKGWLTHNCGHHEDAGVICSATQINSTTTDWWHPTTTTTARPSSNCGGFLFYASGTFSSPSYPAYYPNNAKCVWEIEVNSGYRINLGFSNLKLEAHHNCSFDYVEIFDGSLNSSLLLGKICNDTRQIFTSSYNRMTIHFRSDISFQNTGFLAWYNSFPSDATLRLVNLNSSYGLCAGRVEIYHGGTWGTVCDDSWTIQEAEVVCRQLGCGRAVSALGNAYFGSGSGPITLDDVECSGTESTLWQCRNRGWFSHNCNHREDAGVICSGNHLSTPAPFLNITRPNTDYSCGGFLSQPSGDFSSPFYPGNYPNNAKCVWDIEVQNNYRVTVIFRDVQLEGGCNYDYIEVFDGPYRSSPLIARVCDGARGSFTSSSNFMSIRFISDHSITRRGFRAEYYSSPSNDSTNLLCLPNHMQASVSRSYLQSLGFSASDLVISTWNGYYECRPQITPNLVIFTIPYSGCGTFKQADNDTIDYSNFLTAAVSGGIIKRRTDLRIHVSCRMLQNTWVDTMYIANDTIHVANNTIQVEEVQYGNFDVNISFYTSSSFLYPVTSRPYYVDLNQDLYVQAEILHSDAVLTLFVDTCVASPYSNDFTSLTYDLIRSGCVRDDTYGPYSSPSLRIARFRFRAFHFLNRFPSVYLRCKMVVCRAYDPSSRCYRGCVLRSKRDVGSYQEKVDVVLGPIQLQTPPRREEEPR

- Kd: 0.06 nM
Substance: Siglec-8-Fc (from UniProt Q9NYZ4)
